The values that follow are results of earlier work, collected in patent publication US6406710B1, “Protein occlusion for delivery of small molecules” (priority 1998, dated 2002).

The conditions of this data set: relatively high doses, human clinical trials.

B1: BDNF: Brain Derived Neurotrophic Factor, a neurotrophin proposed as carrier protein (protein, UniProt P23560 19-247, looked up)
Neurotrophic factor BDNF …: APMKEANIRGQGGLAYPGVRTHGTLESVNGPKAGSRGLTSLADTFEHVIEELLDEDQKVRPNEENNKDADLYTSRVMLSSQVPLEPPLLFLLEEYKNYLDAANMSMRVRRHSDPARRGELSVCDSISEWVTAADKKTAVDMSGGTVTVLEKVPVSKGQLKQYFYETKCNPMGYTKEGCRGIDKRHWNSQCRTTQSYVRALTMDSKKRIGWRFIRIDTSCVCTLTIKRGR
Take B1: the tolerability entry is on record as “well tolerated with insignificant adverse effects”.
